This note sets out measurements from US20060142192A1 (ZymoGenetics, published 2006).

In assay [1] the target is T1, human ZcytoR21x1 (human, UniProt Q8NFR9 24-667).
T1 construct: also called hcytor21x1; IL-17RE
T1 sequence: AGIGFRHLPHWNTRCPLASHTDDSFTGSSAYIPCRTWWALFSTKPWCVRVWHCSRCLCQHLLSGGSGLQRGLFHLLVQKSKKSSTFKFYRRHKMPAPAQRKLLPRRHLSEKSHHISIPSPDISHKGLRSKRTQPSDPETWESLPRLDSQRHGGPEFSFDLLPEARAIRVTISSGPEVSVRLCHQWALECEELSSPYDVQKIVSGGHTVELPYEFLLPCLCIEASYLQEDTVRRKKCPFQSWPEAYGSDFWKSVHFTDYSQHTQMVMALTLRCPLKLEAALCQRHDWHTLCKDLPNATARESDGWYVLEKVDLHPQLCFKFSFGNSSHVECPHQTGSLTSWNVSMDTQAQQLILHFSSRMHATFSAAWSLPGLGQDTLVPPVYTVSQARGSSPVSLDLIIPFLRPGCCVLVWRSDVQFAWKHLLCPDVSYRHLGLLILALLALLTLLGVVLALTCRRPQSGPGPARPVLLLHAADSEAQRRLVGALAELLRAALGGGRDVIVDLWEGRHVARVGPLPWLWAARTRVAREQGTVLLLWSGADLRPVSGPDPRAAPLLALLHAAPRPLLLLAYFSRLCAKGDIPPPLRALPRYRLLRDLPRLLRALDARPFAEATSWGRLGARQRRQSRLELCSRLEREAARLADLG
In words: flow cytometry, biotinylated IL-17C (1 ug/ml) + streptavidin-PE on stably transfected BHK cells. On the procedure:
(§1) BHK cells stably transfected with human and mouse ZcytoR21 splice variants were plated and grown to confluency in T-75 flasks. Cells were lifted off using a non-protease reagent such as Versene (Invitrogen 15040-066), pelleted, and resuspended in a staining reagent (HBSS+1% BSA+0.1% NaAzide+10 mM HEPES) at 2×10e7 cells/ml and aliquoted to a 96-well Costar plate. IL-17C that has been labeled with biotin was independently added to cells at a concentration of 1 ug/ml. The cell/ligand mixture can be incubated for 1 hr at 4 degrees. The wells were washed 1× in staining reagent, and incubated in a secondary reagent containing staining reagent plus Streptavidin-PE (BD Pharmingen 554061) at a 1:100 ratio. The wells were incubated at 4° C. in the dark for 1 hr, followed by a 2× wash in staining media. The cells were then resuspended in a 1:1 mixture of staining media and Cytofix (BD Bioscience 554655) and incubated 10 minutes at RT. The cells were analysed by Flow Cytometry and by gating on the PE positive events for cells that bound IL-17C.

Assay [2] has as its target T2, human ZcytoR21x2 (human, UniProt Q8NFR9 24-667).
T2 construct: also called hcytor21x2
T2 sequence: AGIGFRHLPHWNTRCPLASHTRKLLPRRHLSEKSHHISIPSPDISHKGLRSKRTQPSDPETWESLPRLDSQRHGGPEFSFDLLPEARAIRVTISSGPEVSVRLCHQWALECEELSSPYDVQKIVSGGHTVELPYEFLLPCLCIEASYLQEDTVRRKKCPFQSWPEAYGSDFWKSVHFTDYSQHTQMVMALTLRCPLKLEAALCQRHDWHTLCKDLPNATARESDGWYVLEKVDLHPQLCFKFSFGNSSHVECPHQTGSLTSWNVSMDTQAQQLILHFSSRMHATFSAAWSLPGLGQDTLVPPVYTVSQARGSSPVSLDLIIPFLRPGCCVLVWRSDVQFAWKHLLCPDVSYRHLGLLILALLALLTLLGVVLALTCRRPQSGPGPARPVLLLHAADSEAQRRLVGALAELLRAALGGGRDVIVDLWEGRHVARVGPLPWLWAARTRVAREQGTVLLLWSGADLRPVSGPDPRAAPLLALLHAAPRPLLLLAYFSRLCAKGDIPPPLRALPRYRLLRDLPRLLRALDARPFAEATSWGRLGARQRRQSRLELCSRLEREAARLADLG
Described as above. On the procedure:
as §1

The next assay concerns the target T3, human ZcytoR21x6 (human, UniProt Q8NFR9 24-667).
T3 construct: also called hcytor21x6
T3 sequence: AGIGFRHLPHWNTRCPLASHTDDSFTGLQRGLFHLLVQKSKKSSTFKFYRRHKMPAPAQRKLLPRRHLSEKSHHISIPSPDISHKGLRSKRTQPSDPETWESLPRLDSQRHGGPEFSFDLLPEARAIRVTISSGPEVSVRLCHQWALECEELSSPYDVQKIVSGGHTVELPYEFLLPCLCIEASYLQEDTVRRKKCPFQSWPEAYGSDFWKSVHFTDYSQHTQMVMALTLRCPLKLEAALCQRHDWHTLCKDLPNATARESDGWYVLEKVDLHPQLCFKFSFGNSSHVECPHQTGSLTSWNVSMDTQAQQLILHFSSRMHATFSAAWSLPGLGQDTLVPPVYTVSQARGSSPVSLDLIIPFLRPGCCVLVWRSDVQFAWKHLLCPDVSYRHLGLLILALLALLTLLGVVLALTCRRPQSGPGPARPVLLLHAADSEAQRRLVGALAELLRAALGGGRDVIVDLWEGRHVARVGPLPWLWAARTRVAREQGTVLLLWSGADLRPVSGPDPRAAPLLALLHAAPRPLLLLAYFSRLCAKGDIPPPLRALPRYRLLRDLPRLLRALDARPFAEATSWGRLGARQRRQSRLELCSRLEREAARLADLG
The assay is described as above. As for the experimental part:
as §1

The next assay has as its target T4, human ZcytoR21x13 (human, UniProt Q8NFR9 24-667).
T4 construct: also called hcytor21x13
T4 sequence: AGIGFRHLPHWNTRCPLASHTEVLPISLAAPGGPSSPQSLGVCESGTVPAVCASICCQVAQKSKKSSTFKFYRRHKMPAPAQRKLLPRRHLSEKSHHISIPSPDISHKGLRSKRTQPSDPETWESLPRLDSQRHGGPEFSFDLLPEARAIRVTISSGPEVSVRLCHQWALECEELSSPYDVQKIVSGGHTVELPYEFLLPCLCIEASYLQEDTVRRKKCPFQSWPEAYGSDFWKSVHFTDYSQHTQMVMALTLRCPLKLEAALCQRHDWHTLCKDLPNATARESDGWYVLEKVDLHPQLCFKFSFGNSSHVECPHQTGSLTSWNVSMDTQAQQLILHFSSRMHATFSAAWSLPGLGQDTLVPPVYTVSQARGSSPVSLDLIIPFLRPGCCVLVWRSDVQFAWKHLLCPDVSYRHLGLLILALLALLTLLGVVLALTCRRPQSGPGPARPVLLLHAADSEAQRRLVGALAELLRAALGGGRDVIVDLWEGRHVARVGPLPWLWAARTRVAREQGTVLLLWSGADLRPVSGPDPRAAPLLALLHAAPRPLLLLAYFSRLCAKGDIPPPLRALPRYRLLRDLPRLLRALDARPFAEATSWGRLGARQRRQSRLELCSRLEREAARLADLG
The description is as above. On the procedure:
as §1

In a further assay the target is T5, murine ZcytoR21x6 (mouse, UniProt Q8BH06 24-637).
T5 construct: also called mouse ZcytoR21x6; mcytor21x6
T5 sequence: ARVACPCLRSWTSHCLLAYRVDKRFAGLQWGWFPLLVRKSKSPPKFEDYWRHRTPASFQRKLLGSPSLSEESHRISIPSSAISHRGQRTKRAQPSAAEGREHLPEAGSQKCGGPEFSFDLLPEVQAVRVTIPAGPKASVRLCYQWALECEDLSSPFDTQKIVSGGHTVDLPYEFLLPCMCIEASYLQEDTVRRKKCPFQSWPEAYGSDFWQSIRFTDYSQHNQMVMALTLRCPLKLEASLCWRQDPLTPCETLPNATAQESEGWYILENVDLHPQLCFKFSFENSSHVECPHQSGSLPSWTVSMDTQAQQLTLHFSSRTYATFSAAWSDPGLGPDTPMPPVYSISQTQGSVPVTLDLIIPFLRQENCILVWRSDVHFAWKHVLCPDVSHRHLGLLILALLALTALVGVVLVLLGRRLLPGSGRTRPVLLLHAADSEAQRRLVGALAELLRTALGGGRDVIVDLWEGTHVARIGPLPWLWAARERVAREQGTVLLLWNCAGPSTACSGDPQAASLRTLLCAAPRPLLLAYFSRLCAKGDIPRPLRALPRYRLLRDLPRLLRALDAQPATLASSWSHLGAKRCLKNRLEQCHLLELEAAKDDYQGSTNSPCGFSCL
The assay is described as above. As for the experimental part:
as §1

Assay [3] has as its target T1, human ZcytoR21x1. Kind of assay: flow cytometry, biotinylated ligand + streptavidin-PE on stably transfected BHK cells.
Assay [4] has as its target T2, human ZcytoR21x2. The assay is described as above.

B1: murine IL-17C (ligand)
chain: DPPSWGKPRSHRTLRCYSAEELSHGQAPPHLLTRSARWEQALPVALVASLEATGHRRQHEGPLAGTQCPVLRPEEVLEADTHERSISPWRYRIDTDENRYPQKLAVAECLCRGCINAKTGRETAALNSVQLLQSLLVLRRQPCSRDGTADPTPGSFAFHTEFIRVPVGCTCVLPRSTQ
modifications: biotin label in the binding assays (sites not given); unlabelled in the signalling assays
notes: also called mouse IL-17C; IL-17CmCH6
For B1, the binding result in the assay with human ZcytoR21x1 [1], with human ZcytoR21x2 [2], with human ZcytoR21x6, in the assay with human ZcytoR21x13 and with murine ZcytoR21x6 was “binds” throughout.

B2: human IL-17D (biotinylated) (ligand, UniProt Q8TAD2 18-202, looked up)
chain: APRAGRRPARPRGCADRPEELLEQLYGRLAAGVLSAFHHTLQLGPREQARNASCPAGGRPADRRFRPPTNLRSVSPWAYRISYDPARYPRYLPEAYCLCRGCLTGLFGEEDVRFRSAPVYMPTVVLRRTPACAGGRSVYTEAYVTIPVGCTCVPEPEKDADSINSSIDKQGAKLLLGPNDAPAGP
modifications: biotin label (sites not given)
With B2, the binding result with human ZcytoR21x1 [3] and in the assay with human ZcytoR21x2 [4] was “no binding” in each case.

B3: human IL-17F (biotinylated) (ligand, UniProt Q96PD4 31-163, looked up)
chain: RKIPKVGHTFFQKPESCPPVPGGSMKLDIGIINENQRVSMSRNIESRSTSPWNYTVTWDPNRYPSEVVQAQCRNLGCINAQGKEDISMNSVPIQQETLVVRRKHQGCSVSFQLEKVLVTVGCTCVTPVIHHVQ
modifications: biotin label (sites not given)
Regarding B3, the binding result with human ZcytoR21x1 [3] and in the assay with human ZcytoR21x2 [4] was “no binding” throughout.

B4: human IL-17B (biotinylated) (ligand, UniProt Q9UHF5 21-180, looked up)
chain: QPRSPKSKRKGQGRPGPLAPGPHQVPLDLVSRMKPYARMEEYERNIEEMVAQLRNSSELAQRKCEVNLQLWMSNKRSLSPWGYSINHDPSRIPVDLPEARCLCLGCVNPFTMQEDRSMVSVPVFSQVPVRRRLCPPPPRTGPCRQRAVMETIAVGCTCIF
modifications: biotin label (sites not given)
In the case of B4, the binding result with human ZcytoR21x1 [3] and with human ZcytoR21x2 [4] was “no binding” each time.
